Laboratory results published in patent US20160311918A1, “Anti-Ron Monoclonal Antibodies as a Cytotoxic Drug Delivery System for Targeted Cancer Therapy” (TEXAS TECH UNIVERSITY SYSTEM, priority 2013, published 2016).
Entries after “also recorded” stand apart in the source; their conditions may differ.

Columns and labels:
[1] = target: T1, RON on HCT116, HT29, and SW620 cells (Homo sapiens, UniProt Q04912); assay: Flow cytometric binding to CRC cell lines; settings: all three CRC cell lines, flow cytometry
T1 construct: We selected CRC cell lines LoVo, DLD1, HT29, HCT116, and SW620 expressing variable levels of RON as the cellular model; host or cells: HCT116, HT29, SW620
Experimental: FIG. 2B: Binding of Zt/g4-DM1 to human CRC cell lines: HCT116, HT29, and SW620 cells (1×10^5 cells) were incubated with 5 μg Zt/g4-DM1 or Zt/c1-DM1. Free Zt/g4 and Zt/c1 was used as the control. Fluorescence intensity from individual samples was determined by flow cytometric analysis.
The binding capacity of Zt/g4-DM1 to RON was determined by flow cytometric analysis.

RON-β chain (mature RON) = target: T2, RON-β chain (mature RON) (Homo sapiens, UniProt Q04912); assay: Western blot of RON expression in CRC cells; type: cell-based; settings: 36 h after treatment, 5 μg/ml
T2 construct: We selected CRC cell lines LoVo, DLD1, HT29, HCT116, and SW620 expressing variable levels of RON as the cellular model; host or cells: HCT116, HT29, SW620

three CRC cell lines = assay: Cell viability, three CRC cell lines together; settings: 72 h after treatment
Experimental: Cell viability and death assays: Cell viability 72 h after Zt/g4-DM1 treatment was determined by the MTT assay (22). Viable or dead cells were determined by the trypan blue exclusion assay. A total of 900 cells were counted from three individual wells to reach the percentages of dead cells.

[2] = test system: HCT116-luc2 xenograft tumor; assay: HCT116-luc2 mouse xenograft tumor model; type: in vivo; settings: single dose 20 mg/kg
Experimental: (§1) Athymic nude mice (five mice per group) were subcutaneously inoculated with 5×10^6 HCT116, HT29, and SW620 cells followed by injection of 20 mg/kg Zt/g4-DM1 through tail vein. FIG. 4A: Tumor growth from HT29-luc2 or HCT116-luc2 cells was determined by measuring average photon intensity (left panel). SW620-derived tumor growth was monitored by measuring tumor volume (FIG. 4B) (right panel). FIG. 4C: Tumor images with photon emission or caliper measurement at day 16 are presented. The scale from minimal to maximal is set at 300 to 35,000 photons per second. The percentages of inhibition were calculated from the average photon emission (for HT29 and HCT116 cells) or tumor volume (for SW620 cells). […] The percentages of inhibition were calculated by a formula: (average tumor weight from Zt/g4-DM1 treated group/average tumor weight from control mice)×100%;
(§2) Mouse xenograft CRC model and anti-RON ADC treatment: All mice studies were approved by the institutional animal care committee. […] Bioluminescence from individual tumors was measured every four days using Caliper IVIS image system (PerkinElmer). Tumor volumes from SW620-derived tumors were measured according to a formula: V=pi/6×1.58×(length×width)^3/2 (18,33). […]
(§3) The inventors first determined the efficacy of a single dose of Zt/g4-DM1 at 20 mg/kg body weight on tumors derived from HCT116, HT29, and SW620 cells. […]

SW620-derived tumors = assay: SW620 mouse xenograft tumor model; type: in vivo; settings: single dose 20 mg/kg
Experimental: as §1, §2, §3

[3] = Acute toxicity in Balb/c mice; type: in vivo, mouse
Experimental: FIGS. 6A to 6C show the toxicity of Zt/g4-DM1 in vivo. Body weight was measured every four days during the period of Zt/g4-DM1 treatment. FIG. 6A: Effect of multiple doses of Zt/g4-DM1 on mouse body weight was determined by administration of Zt/g4-DM1 at 1, 3, 7, 10, 15 mg/kg every four day with a total of 5 injections. Mice were weighed and monitored for a total of 31 days. FIG. 6B: Effect of a single dose of Zt/g4 at 20 mg/kg on mouse body weight was determined using mice bearing HT29, HCT116, or SW620-derived tumors. Body weight was monitored up to 28 days. FIG. 6C: Effect of high doses of Zt/G4-DM1 on mouse body weight was analyzed by tail vein injection at 20, 40 and 60 mg/kg to Balb/c mice. Mice were euthanized at day 21. In all cases, the average body weight of mice before Zt/g4-DM1 injection was 19.8±3.6 grams (5 mice per group) and set as 100%;
In vivo toxicity studies: Acute toxicity with maximum tolerated dose was determined in Balb/C mice (four mice per dose) by a single tail vein injection of Zt/g4-DM1 at 20, 40, and 60 mg/kg body weight. Toxicity associated with different therapeutic doses was evaluated in athymic nude mice bearing HT29 tumor xenograft (five mice per dose). […] Toxicity was assessed by observing mouse behavior, weight loss, and survival.
Toxic effect of Zt/g4-DM1 on mice. Three studies using two different types of mice were performed to study Zt/g4-DM1 on animal behavior and body weight. The first study addressed the impact of multi-doses of Zt/g4-DM1. Athymic nude mice were injected five times with 1, 3, […], 7, 10, 15 mg/kg of Zt/g4-DM1 and monitored every four days for a total period of 31 days. […] The second study observed the effect of a single dose of Zt/g4-DM1 at 20 mg/kg in nude mice bearing tumors derived from HT29, HCT116, and SW620 cells. […] The third study involved a single-dose injection of Zt/g4-DM1 at 20, 40, and 60 mg/kg in Balb/c mice monitored for 24 days (FIG. 6C). […] Also, a moderate reduction of about 6% body weight was observed within the first four days after 60 mg/kg Zt/g4-DM1 injection. Although the average body weight from this group of mice slowly recovered during the observation period, the overall average remained lower than that of control mice with a 19% difference compared to that of control mice at day 24. Thus, Zt/g4-DM1 at the multiple-dose regimen appeared to be well tolerated.

[4] = test system: PDAC cell-mediated tumor growth; assay: Mouse xenograft PDAC model; type: in vivo; settings: mouse PDAC xenograft models
Experimental: Mouse xenograft PDAC model and anti-RON ADC treatment: Female athymic nude mice were injected with 5×106 L3.6PL, BxPC-3, or FG cells into the subcutaneous space of the right flank. Treatment began when all tumors have reached an average tumor volume of 100 to 200 mm3 The single-dose effect was studied by injection of 20 mg/kg Zt/g4-DM1. Tumor volumes were determined every four days using a previously described formula: V=pi/6×1.58×(length×width)3/2.

T2 sequence (Q04912 310-1400 limits assumed): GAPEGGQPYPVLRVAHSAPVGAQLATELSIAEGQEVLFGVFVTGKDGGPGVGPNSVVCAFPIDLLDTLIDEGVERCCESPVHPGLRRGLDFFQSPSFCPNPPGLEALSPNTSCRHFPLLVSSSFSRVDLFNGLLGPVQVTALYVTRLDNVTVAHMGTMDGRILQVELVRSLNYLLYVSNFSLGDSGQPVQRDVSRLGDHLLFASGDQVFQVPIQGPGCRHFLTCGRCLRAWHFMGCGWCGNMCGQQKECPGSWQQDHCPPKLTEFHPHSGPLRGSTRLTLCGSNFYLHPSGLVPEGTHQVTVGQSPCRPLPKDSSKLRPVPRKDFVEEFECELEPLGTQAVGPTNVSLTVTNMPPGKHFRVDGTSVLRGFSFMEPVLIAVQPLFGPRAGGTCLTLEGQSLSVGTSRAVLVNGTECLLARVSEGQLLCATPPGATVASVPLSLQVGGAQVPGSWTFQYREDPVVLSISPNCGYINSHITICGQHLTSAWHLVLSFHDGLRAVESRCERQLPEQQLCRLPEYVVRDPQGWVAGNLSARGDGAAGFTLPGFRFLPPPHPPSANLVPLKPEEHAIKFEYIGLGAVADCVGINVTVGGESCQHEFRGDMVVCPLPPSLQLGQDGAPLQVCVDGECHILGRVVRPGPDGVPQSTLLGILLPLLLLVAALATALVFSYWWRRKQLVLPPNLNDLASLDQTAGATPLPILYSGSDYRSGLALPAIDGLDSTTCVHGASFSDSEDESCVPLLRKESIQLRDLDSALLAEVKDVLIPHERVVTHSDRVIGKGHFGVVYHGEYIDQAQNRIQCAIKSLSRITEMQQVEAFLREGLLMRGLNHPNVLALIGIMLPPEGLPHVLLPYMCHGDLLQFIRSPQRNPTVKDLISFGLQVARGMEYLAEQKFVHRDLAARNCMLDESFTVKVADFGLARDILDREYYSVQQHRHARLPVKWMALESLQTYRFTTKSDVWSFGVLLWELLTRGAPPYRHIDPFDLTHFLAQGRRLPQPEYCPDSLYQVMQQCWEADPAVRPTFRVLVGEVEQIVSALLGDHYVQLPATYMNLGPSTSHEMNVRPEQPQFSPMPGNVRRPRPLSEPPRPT
T2 sequence (Q04912 25-304 limits assumed): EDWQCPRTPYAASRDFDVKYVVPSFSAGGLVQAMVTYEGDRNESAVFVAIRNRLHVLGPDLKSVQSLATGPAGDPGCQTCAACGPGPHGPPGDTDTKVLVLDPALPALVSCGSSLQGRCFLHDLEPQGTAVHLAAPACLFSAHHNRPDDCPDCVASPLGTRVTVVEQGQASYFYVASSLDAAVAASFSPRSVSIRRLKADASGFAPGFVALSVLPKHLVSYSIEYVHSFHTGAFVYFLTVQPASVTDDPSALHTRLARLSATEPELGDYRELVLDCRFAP

B1: Zt/g4-DM1: anti-RON mouse mAb Zt/g4 conjugated to maytansinoid DM1 via non-reducible thioether linkage (SMCC), DAR about 4:1 (conjugate)
VH: EVQLQQSGAELVKPGASVKLSCTTSGFNIIDTYIHWVNQKPDQGLEWIGRIDPADGNRKSDPKFQVKATITVDTSSNTAYLQLSSLTSGDTAVYYCARGYGNLNAMDSWGQGTSVTVSS
VL: DIQMNQSPSSLSASLGDTITITCHASQNINVWLNWYQQKPGNIPKLLIYKASNLHTGVPSRFSGSGSGTGFTLTISSLQPEDIATYYCQQGQSYPLTFGGGTKLEIK
binding intensity compared with free Zt/g4 [1]: No difference in binding intensity | RON-β chain detected (RON-β chain (mature RON)): Less than 20% | reduction in cell viability (three CRC cell lines): More than 80% | inhibition by average bioluminescence intensity ([2]; day 16): More than 95% | inhibition rate by average tumor weight ([2]; day 28): 58.0% | inhibition in tumor volume (SW620-derived tumors; day 16): 82% | inhibition rate by average tumor weight (SW620-derived tumors; day 28): 61.9% | average reduction in mouse body weight ([3]; 60 mg/kg): 12% | toxic effect on mouse behavior or body weight ([3]; doses up to 40 mg/kg): no toxic effect on mouse behavior or body weight | distress ([3]; single dose 60 mg/kg, Balb/c mice): Moderate distress | body weight difference compared to control mice ([3]; single dose 60 mg/kg, day 24): 19% | reduction of body weight ([3]; single dose 60 mg/kg, within the first four days): about 6% | inhibition of PDAC xenograft tumor growth [4]: highly effective in inhibiting PDAC cell-mediated tumor growth; also recorded: highly effective in inhibition of xenograft PDAC growth
